Laboratory results: patent US20090233317

Assays:
[1] = test system: hsGRIM1 (human Global Repressor Involved in Myogenic differentiation), full length aa 1-749
[2] = test system: recombinantly expressed GRIM1 aa 3-147

“HAT domain of p300 (bacterially expressed)” was tested, and the “acetylation of GRIM1” value [1] was “detection of direct acetylation of GRIM1 (aa3-147 and of full-length GRIM1) by the HAT domain of p300” and the “acetylation of GRIM1” value [2] was “detection of direct acetylation of GRIM1 (aa3-147 and of full-length GRIM1) by the HAT domain of p300”.
